Results published in the supplement of paper PMC9170038.

Test system: MS2 coat protein
Assay: apparent KD of MS2 coat protein; designed switch direction (-1 OFF switch, 1 ON switch): 1; higher = weaker reporter binding
Procedure, shortened: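 Designed RNA switches with common flanks were made on Illumina chips by stalled E. coli RNA polymerase. Titration with SNAP-549-labelled MS2 coat protein doubled from 0.7 or 1.5 nM up to 3 µM. Apparent KD is each design's median over clusters after curve-fitting normalised fluorescence.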

[1] = input ligand: microRNA oligo, concentration not stated
[2] = Eterna round: R95, input ligand: FMN 200 uM
[3] = Eterna round: R95, input ligand: microRNA oligo, concentration not stated
[4] = Eterna round: R95, input ligand: none

Sequence | apparent KD of MS2 coat protein (input ligand: FMN 200 uM) | apparent KD of MS2 coat protein [1] | apparent KD of MS2 coat protein (input ligand: none) | apparent KD of MS2 coat protein [2] | apparent KD of MS2 coat protein [3] | apparent KD of MS2 coat protein [4]
CCUUAGUACAAUUUAGAUCUACAUGAGGAUCACCCAUGUACUGAGGAUAUCAGCUCGAUUAGAGCUGAGAAGGCAGAAGUACUU [SSNG3/7-A2] (Eterna round: R96, puzzle: Same State NG 3) | 90.9 nM | 122 nM | 144 nM |  |  | 
AGCGAGAUAGGCGAGGAUAUGCUUUUUUGCACAUGAGGAUCACCCAUGUCUUUGUUUUUUGUUUUGCAGAAGGCGCAUUCUCUUU [ak unbound state multiloop] (Eterna round: R96, puzzle: Same State 2) | 46.1 nM | 15.8 nM | 26.1 nM |  |  | 
GCUCGAUGAGCGGUUUACAUGAGGAUCACCCAUGUACGUGGGCAGGAUAUUUACGUGCUUUGUGUAGAGAAGGGCCCAUCGAGC [SameState NG3 #73] (Eterna round: R96, puzzle: Same State NG 3) | 39.8 nM | 191 nM | 405 nM |  |  | 
GUUAGGAAUCUAGCAAACAUGAGGAUCACCCAUGUAAGUGGGAAGGAUAUGGUACAGAAACUGUACCAGAAGGUCUUAUUGAUU [Omei SS(NG) 3 AV5] (Eterna round: R96, puzzle: Same State NG 3) | 81.7 nM | 247 nM | 371 nM |  |  | 
GCUCGAUGAAAGUCCUACAUGAGGAUCACCCAUGUACGUGGGCAGGAUAUUUACAUGCAGAGUGUAGAGAAGGGCCCAUCGAGC [SameState NG3 #61] (Eterna round: R96, puzzle: Same State NG 3) | 18.3 nM | 50.2 nM | 76.4 nM |  |  | 
UGAAUAGUUACAGGAUAUCAUGCGAAAAUUGCGUGAGAAGGGUGGGUGUUGUGCUCAAAGUGCUACAUGAGGAUCACCCAUGUU [SameState NG1 #40] (Eterna round: R96, puzzle: Same State NG 1) | 1720 nM | 99.3 nM | 497 nM |  |  | 
UAGAAUCUAUCUCAGGAUAUCAUGUCAAAGACAUGAGGAUCACCCAUGUACCAGGAAACUGGUUAUGAGAAGGGAGAUAGAUUCU [Mat - Same State 2 - Mod - D33] (puzzle: Same State 2) |  |  |  | 160 nM | 158 nM | 281 nM
CCAAAGUACAAUUUAGAUCUACAUGAGGAUCACCCAUGUACUGAGGAUAUCAGCUCGAAUAGAGCUGAGAAGGCAGAAUUAAUU [SSNG3/4-A1] (Eterna round: R96, puzzle: Same State NG 3) | 155 nM | 155 nM | 317 nM |  |  | 
GUAAAACAUGAGGAUCACCCAUGUCAACAAAGUCGAGGAUAUGGGCAUAUAUUAUAUGAACCAGAAGGCGAAUAUG [Mat - Same State 1 - Mod of UCT - D27] (puzzle: Same State 1) |  |  |  | 14.6 nM | 43.1 nM | 33.9 nM
GCAGGACAUGAGGAUCACCCAUGUUCCAAAUAUUGAGGAUAUGGAUACGGUAUAUCCGAACCAGAAGGCAACCUGC [SS1 Teenbexe 21] (puzzle: Same State 1) |  |  |  | 25.3 nM | 22.1 nM | 23.3 nM
GUGGUCUGACAUGAGGAUCACCCAUGUGGAAUAAAUACGGGUUAGGAUAUCUUGAGGAUCACCCAAGAGAAGGGAUGGAUGGUC (Eterna round: R96, puzzle: Same State NG 3) |  | 71 nM |  |  |  | 
GGAAAGAGGUUAGGAUAUGCAUGUCUGGGACAUGAGGAUCACCCAUGUAAUAGAAGAAAUCUACAGUAGAAGGGACAAGGAAGG [AK SSNG2-V2-7] (Eterna round: R96, puzzle: Same State NG 2) | 89.9 nM | 62.7 nM | 75.2 nM |  |  | 
GACAAUUGACAUGAGGAUCACCCAUGUAUUACUUCGUGUUUUUGCUCGUCUUAUGUUAGGUUCGAAAGGAGCUUAAC [Polished] (puzzle: Sensor for hsa-mir-208a version 2) |  |  |  | 68.6 nM | 16.2 nM | 86.7 nM
GCCGCGUUUCGCGCCUACAUGAGGAUCACCCAUGUAUGUAGGCAGGAUAUCGUUUGCUUUGCAAACGAGAAGGGCUGUUGUGGC [salish99_SSNG3_R04_009] (Eterna round: R96, puzzle: Same State NG 3) | 79.5 nM | 217 nM | 227 nM |  |  | 
AGUAGUUUAACAUGAGGAUCACCCAUGUAUCUAUCUGUAACCUAGGAUAUGGGCGUUGUAUUUAACCAGAAGGAGGAUCGUUUA [JR_SSNG3_Sub047] (Eterna round: R96, puzzle: Same State NG 3) | 17.8 nM | 22.5 nM | 29 nM |  |  | 
GUAUAACAUGAGGAUCACCCAUGUCAACAAAGUCGAGGAUAUGGGCAAUUAUAAUUAGAACCAGAAGGCGAAUAGU [Mat - Same State 1 - Mod of UCT - D43] (puzzle: Same State 1) |  |  |  | 30.8 nM | 287 nM | 251 nM
ACAUGAGAUUGAGGAUAUAUAGUACCUACAUGUGACAUGAGGAUCACCCAUGUGGUAAGUAUGACAUAGAAGGCAAAGAUAUGU [Equivalance 99 - Jieux - Same State NG 2] (Eterna round: R96, puzzle: Same State NG 2) | 35 nM | 37.6 nM | 50.6 nM |  |  | 
UUAAUGAUGAAAGGAUAUACAUGAGGAAUUCUCGUAGAAGGUUCAUGACAUGAGGAUCACCCAUGUAUCGCUCAGAAGAGCGUA [Mat - Same State NG 1 - JL mod - D29] (Eterna round: R96, puzzle: Same State NG 1) | 47.4 nM | 36 nM | 85.4 nM |  |  | 
GGUCUAGUUACAGGAUAUGCUAUCCUUUGGGUAGCAGAAGGGUGGUAACAUGAGGAUCACCCAUGUGGGCCAGGGCGUGAGCCC [JL SSNG1 1.00] (Eterna round: R96, puzzle: Same State NG 1) | 770 nM | 981 nM | 1260 nM |  |  | 
ACGCUAGUCACAGGAUAUCCGAAAUAUAGCAAAGGAGAAGGGUGAUUAACAUGAGGAUCACCCAUGUAAAAGAAGAAAGAAGAU [Edargebi] (Eterna round: R96, puzzle: Same State NG 1) | 173 nM | 167 nM | 186 nM |  |  | 
UCAAUCAUGUAAGGAUAUGCAGCCGAAACGGCUGCAGAAGGUACUAUAAUUACAUGAGGAUCACCCAUGUUAUAAAAUUUAAAU [Mat - Same State NG 1 - JL mod - D68] (Eterna round: R96, puzzle: Same State NG 1) | 35.5 nM | 46 nM | 123 nM |  |  | 
AUAACACUGGCAGGAUAUGGGAUUGGAAGUGUUCCAGAAGGGCCAGAACGGCGAUGGACAUGAGGAUCACCCAUGUCUUAGCCU [MOD Powerstrip SSNG 1.4 (Unstable)] (Eterna round: R96, puzzle: Same State NG 1) | 13 nM | 7.66 nM | 9.48 nM |  |  | 
UCUUGGUUUUUGCUCGUUUUUUGUGUUGAACAUGAGGAUCACCCAUGUAUUGUACGGUCCGAUUUGAUAAUGGUCCG [JMF 21] (puzzle: Sensor for hsa-mir-208a) |  |  |  | 25.8 nM | 14.8 nM | 27 nM
UAGUGCAUUAGAGGAUAUUCUUACGAAAACGUAAAGACAUGAGGAUCACCCAUGUUGUCACAUGGGAAGAAGGCUGAUGUGCUA [Omei SS(NG)2 Bv3] (Eterna round: R96, puzzle: Same State NG 2) | 26.3 nM | 117 nM | 148 nM |  |  | 
UGGCUCAGACGAGGAUAUAUGCGAUCACAUGAGGAUCACCCAUGUCUCGAGCUUCGGCUCGAGGCAUAGAAGGCGUCUGAGCCA [SSNG2/4-A2] (Eterna round: R96, puzzle: Same State NG 2) | 15.8 nM | 28 nM | 32.5 nM |  |  | 
AAAAUGUGAUGUUACAUGAGGAUCACCCAUGUAGUGACAACUAAGGAUAUCCGAAAAAAAGGAGAGGAGAAGGUAGGAUCACAA [AK SSNG3-V2-16.2] (Eterna round: R96, puzzle: Same State NG 3) | 18.3 nM | 33.3 nM | 46.3 nM |  |  | 
UGAAUAGUGAUAGGAUAUACAUGAGGAAUCCUCGUAGAAGGAUCACGACAUGAGGAUCACCCAUGUAGCCGUCGAAAGACGGCA [Mat - Same State NG 1 - JL mod - D61] (Eterna round: R96, puzzle: Same State NG 1) | 924 nM | 86.1 nM | 192 nM |  |  | 
GACAAGAAGUCAUAGGAUAUACAAGGAGUGACAUGAGGAUCACCCAUGUACCAUCACACUACCCAGUAGAAGGAUGGCAAUAAAA [Oranor] (puzzle: Same State 2) |  |  |  | 50.3 nM | 384 nM | 542 nM
GGAUCAUGACGAGGAUAUGGUACAUGAGGAUCACCCAUGUAUGUACCAUAACGCGUACGACGAAACCAGAAGGCGUCGUGGUCG [Mat - Same State NG 2 - JL mod - D40] (Eterna round: R96, puzzle: Same State NG 2) | 9.88 nM | 21 nM | 28 nM |  |  | 
GGAAUAUGAUGUUACAUGAGGAUCACCCAUGUAGUAAUAACUAAGGAUAUCUGUUAAGAUAACUAAGAGAAGGUAGGAUCAUAA [AK SSNG3-V2-8.4] (Eterna round: R96, puzzle: Same State NG 3) | 22.2 nM | 20.5 nM | 22.1 nM |  |  | 
